B1: DDX42_HUMAN (protein, UniProt Q86XP3 1-938, looked up)
ATP-dependent RNA helicase …: MNWNKGGPGTKRGFGFGGFAISAGKKEEPKLPQQSHSAFGATSSSSGFGKSAPPQLPSFYKIGSKRANFDEENAYFEDEEEDSSNVDLPYIPAENSPTRQQFHSKPVDSDSDDDPLEAFMAEVEDQAARDMKRLEEKDKERKNVKGIRDDIEEEDDQEAYFRYMAENPTAGVVQEEEEDNLEYDSDGNPIAPTKKIIDPLPPIDHSEIDYPPFEKNFYNEHEEITNLTPQQLIDLRHKLNLRVSGAAPPRPGSSFAHFGFDEQLMHQIRKSEYTQPTPIQCQGVPVALSGRDMIGIAKTGSGKTAAFIWPMLIHIMDQKELEPGDGPIAVIVCPTRELCQQIHAECKRFGKAYNLRSVAVYGGGSMWEQAKALQEGAEIVVCTPGRLIDHVKKKATNLQRVSYLVFDEADRMFDMGFEYQVRSIASHVRPDRQTLLFSATFRKKIEKLARDILIDPIRVVQGDIGEANEDVTQIVEILHSGPSKWNWLTRRLVEFTSSGSVLLFVTKKANAEELANNLKQEGHNLGLLHGDMDQSERNKVISDFKKKDIPVLVATDVAARGLDIPSIKTVINYDVARDIDTHTHRIGRTGRAGEKGVAYTLLTPKDSNFAGDLVRNLEGANQHVSKELLDLAMQNAWFRKSRFKGGKGKKLNIGGGGLGYRERPGLGSENMDRGNNNVMSNYEAYKPSTGAMGDRLTAMKAAFQSQYKSHFVAASLSNQKAGSSAAGASGWTSAGSLNSVPTNSAQQGHNSPDSPVTSAAKGIPGFGNTGNISGAPVTYPSAGAQGVNNTASGNNSREGTGGSNGKRERYTENRGSSRHSHGETGNRHSDSPRHGDGGRHGDGYRHPESSSRHTDGHRHGENRHGGSAGRHGENRGANDGRNGESRKEAFNRESKMEPKMEPKVDSSKMDKVDSKTDKTADGFAVPEPPKRKKSRWDS
B2: CBPD_HUMAN (protein, UniProt O75976 32-1380, looked up)
Carboxypeptidase D: AHIKKAEATTTTTSAGAEAAEGQFDRYYHEEELESALREAAAAGLPGLARLFSIGRSVEGRPLWVLRLTAGLGSLIPEGDAGPDAAGPDAAGPLLPGRPQVKLVGNMHGDETVSRQVLIYLARELAAGYRRGDPRLVRLLNTTDVYLLPSLNPDGFERAREGDCGFGDGGPSGASGRDNSRGRDLNRSFPDQFSTGEPPALDEVPEVRALIEWIRRNKFVLSGNLHGGSVVASYPFDDSPEHKATGIYSKTSDDEVFKYLAKAYASNHPIMKTGEPHCPGDEDETFKDGITNGAHWYDVEGGMQDYNYVWANCFEITLELSCCKYPPASQLRQEWENNRESLITLIEKVHIGVKGFVKDSITGSGLENATISVAGINHNITTGRFGDFYRLLVPGTYNLTVVLTGYMPLTVTNVVVKEGPATEVDFSLRPTVTSVIPDTTEAVSTASTVAIPNILSGTSSSYQPIQPKDFHHHHFPDMEIFLRRFANEYPNITRLYSLGKSVESRELYVMEISDNPGVHEPGEPEFKYIGNMHGNEVVGRELLLNLIEYLCKNFGTDPEVTDLVHNTRIHLMPSMNPDGYEKSQEGDSISVIGRNNSNNFDLNRNFPDQFVQITDPTQPETIAVMSWMKSYPFVLSANLHGGSLVVNYPFDDDEQGLATYSKSPDDAVFQQIALSYSKENSQMFQGRPCKNMYPNEYFPHGITNGASWYNVPGGMQDWNYLQTNCFEVTIELGCVKYPLEKELPNFWEQNRRSLIQFMKQVHQGVRGFVLDATDGRGILNATISVAEINHPVTTYKTGDYWRLLVPGTYKITASARGYNPVTKNVTVKSEGAIQVNFTLVRSSTDSNNESKKGKGASSSTNDASDPTTKEFETLIKDLSAENGLESLMLRSSSNLALALYRYHSYKDLSEFLRGLVMNYPHITNLTNLGQSTEYRHIWSLEISNKPNVSEPEEPKIRFVAGIHGNAPVGTELLLALAEFLCLNYKKNPAVTQLVDRTRIVIVPSLNPDGRERAQEKDCTSKIGQTNARGKDLDTDFTNNASQPETKAIIENLIQKQDFSLSVALDGGSMLVTYPYDKPVQTVENKETLKHLASLYANNHPSMHMGQPSCPNKSDENIPGGVMRGAEWHSHLGSMKDYSVTYGHCPEITVYTSCCYFPSAARLPSLWADNKRSLLSMLVEVHKGVHGFVKDKTGKPISKAVIVLNEGIKVQTKEGGYFHVLLAPGVHNIIAIADGYQQQHSQVFVHHDAASSVVIVFDTDNRIFGLPRELVVTVSGATMSALILTACIIWCICSIKSNRHKDGFHRLRQHHDEYEDEIRMMSTGSKKSLLSHEFQDETDTEEETLYSSKH
B3: DSG1_HUMAN (protein, UniProt Q02413 50-1049, looked up)
Desmoglein-1: EWIKFAAACREGEDNSKRNPIAKIHSDCAANQQVTYRISGVGIDQPPYGIFVINQKTGEINITSIVDREVTPFFIIYCRALNSMGQDLERPLELRVRVLDINDNPPVFSMATFAGQIEENSNANTLVMILNATDADEPNNLNSKIAFKIIRQEPSDSPMFIINRNTGEIRTMNNFLDREQYGQYALAVRGSDRDGGADGMSAECECNIKILDVNDNIPYMEQSSYTIEIQENTLNSNLLEIRVIDLDEEFSANWMAVIFFISGNEGNWFEIEMNERTNVGILKVVKPLDYEAMQSLQLSIGVRNKAEFHHSIMSQYKLKASAISVTVLNVIEGPVFRPGSKTYVVTGNMGSNDKVGDFVATDLDTGRPSTTVRYVMGNNPADLLAVDSRTGKLTLKNKVTKEQYNMLGGKYQGTILSIDDNLQRTCTGTININIQSFGNDDRTNTEPNTKITTNTGRQESTSSTNYDTSTTSTDSSQVYSSEPGNGAKDLLSDNVHFGPAGIGLLIMGFLVLGLVPFLMICCDCGGAPRSAAGFEPVPECSDGAIHSWAVEGPQPEPRDITTVIPQIPPDNANIIECIDNSGVYTNEYGGREMQDLGGGERMTGFELTEGVKTSGMPEICQEYSGTLRRNSMRECREGGLNMNFMESYFCQKAYAYADEDEGRPSNDCLLIYDIEGVGSPAGSVGCCSFIGEDLDDSFLDTLGPKFKKLADISLGKESYPDLDPSWPPQSTEPVCLPQETEPVVSGHPPISPHFGTTTVISESTYPSGPGVLHPKPILDPLGYGNVTVTESYTTSDTLKPSVHVHDNRPASNVVVTERVVGPISGADLHGMLEMPDLRDGSNVIVTERVIAPSSSLPTSLTIHHPRESSNVVVTERVIQPTSGMIGSLSMHPELANAHNVIVTERVVSGAGVTGISGTTGISGGIGSSGLVGTSMGAGSGALSGAGISGGGIGLSSLGGTASIGHMRSSSDHHFNQTIGSASPSTARSRITKYSTVQYSK
B4: HACD3_HUMAN (protein, UniProt Q9P035 1-362, looked up)
Very-long-chain …: MENQVLTPHVYWAQRHRELYLRVELSDVQNPAISITENVLHFKAQGHGAKGDNVYEFHLEFLDLVKPEPVYKLTQRQVNITVQKKVSQWWERLTKQEKRPLFLAPDFDRWLDESDAEMELRAKEEERLNKLRLESEGSPETLTNLRKGYLFMYNLVQFLGFSWIFVNLTVRFCILGKESFYDTFHTVADMMYFCQMLAVVETINAAIGVTTSPVLPSLIQLLGRNFILFIIFGTMEEMQNKAVVFFVFYLWSAIEIFRYSFYMLTCIDMDWKVLTWLRYTLWIPLYPLGCLAEAVSVIQSIPIFNETGRFSFTLPYPVKIKVRFSFFLQIYLIMIFLGLYINFRHLYKQRRRRYGQKKKKIH
B5: SF3A1_HUMAN (protein, UniProt Q15459 2-793, looked up)
Splicing factor 3A subunit 1: PAGPVQAVPPPPPVPTEPKQPTEEEASSKEDSAPSKPVVGIIYPPPEVRNIVDKTASFVARNGPEFEARIRQNEINNPKFNFLNPNDPYHAYYRHKVSEFKEGKAQEPSAAIPKVMQQQQQTTQQQLPQKVQAQVIQETIVPKEPPPEFEFIADPPSISAFDLDVVKLTAQFVARNGRQFLTQLMQKEQRNYQFDFLRPQHSLFNYFTKLVEQYTKILIPPKGLFSKLKKEAENPREVLDQVCYRVEWAKFQERERKKEEEEKEKERVAYAQIDWHDFVVVETVDFQPNEQGNFPPPTTPEELGARILIQERYEKFGESEEVEMEVESDEEDDKQEKAEEPPSQLDQDTQVQDMDEGSDDEEEGQKVPPPPETPMPPPLPPTPDQVIVRKDYDPKASKPLPPAPAPDEYLVSPITGEKIPASKMQEHMRIGLLDPRWLEQRDRSIREKQSDDEVYAPGLDIESSLKQLAERRTDIFGVEETAIGKKIGEEEIQKPEEKVTWDGHSGSMARTQQAAQANITLQEQIEAIHKAKGLVPEDDTKEKIGPSKPNEIPQQPPPPSSATNIPSSAPPITSVPRPPTMPPPVRTTVVSAVPVMPRPPMASVVRLPPGSVIAPMPPIIHAPRINVVPMPPSAPPIMAPRPPPMIVPTAFVPAPPVAPVPAPAPMPPVHPPPPMEDEPTSKKLKTEDSLMPEEEFLRRNKGPVSIKVQVPNMQDKTEWKLNGQVLVFTLPLTDQVSVIKVKIHEATGMPAGKQKLQYEGIFIKDSNSLAYYNMANGAVIHLALKERGGRKK
B6: CPSF1_HUMAN (protein, UniProt Q10570 1-1443, looked up)
Cleavage and polyadenylation …: MYAVYKQAHPPTGLEFSMYCNFFNNSERNLVVAGTSQLYVYRLNRDAEALTKNDRSTEGKAHREKLELAASFSFFGNVMSMASVQLAGAKRDALLLSFKDAKLSVVEYDPGTHDLKTLSLHYFEEPELRDGFVQNVHTPRVRVDPDGRCAAMLVYGTRLVVLPFRRESLAEEHEGLVGEGQRSSFLPSYIIDVRALDEKLLNIIDLQFLHGYYEPTLLILFEPNQTWPGRVAVRQDTCSIVAISLNITQKVHPVIWSLTSLPFDCTQALAVPKPIGGVVVFAVNSLLYLNQSVPPYGVALNSLTTGTTAFPLRTQEGVRITLDCAQATFISYDKMVISLKGGEIYVLTLITDGMRSVRAFHFDKAAASVLTTSMVTMEPGYLFLGSRLGNSLLLKYTEKLQEPPASAVREAADKEEPPSKKKRVDATAGWSAAGKSVPQDEVDEIEVYGSEAQSGTQLATYSFEVCDSILNIGPCANAAVGEPAFLSEEFQNSPEPDLEIVVCSGHGKNGALSVLQKSIRPQVVTTFELPGCYDMWTVIAPVRKEEEDNPKGEGTEQEPSTTPEADDDGRRHGFLILSREDSTMILQTGQEIMELDTSGFATQGPTVFAGNIGDNRYIVQVSPLGIRLLEGVNQLHFIPVDLGAPIVQCAVADPYVVIMSAEGHVTMFLLKSDSYGGRHHRLALHKPPLHHQSKVITLCLYRDLSGMFTTESRLGGARDELGGRSGPEAEGLGSETSPTVDDEEEMLYGDSGSLFSPSKEEARRSSQPPADRDPAPFRAEPTHWCLLVRENGTMEIYQLPDWRLVFLVKNFPVGQRVLVDSSFGQPTTQGEARREEATRQGELPLVKEVLLVALGSRQSRPYLLVHVDQELLIYEAFPHDSQLGQGNLKVRFKKVPHNINFREKKPKPSKKKAEGGGAEEGAGARGRVARFRYFEDIYGYSGVFICGPSPHWLLVTGRGALRLHPMAIDGPVDSFAPFHNVNCPRGFLYFNRQGELRISVLPAYLSYDAPWPVRKIPLRCTAHYVAYHVESKVYAVATSTNTPCARIPRMTGEEKEFETIERDERYIHPQQEAFSIQLISPVSWEAIPNARIELQEWEHVTCMKTVSLRSEETVSGLKGYVAAGTCLMQGEEVTCRGRILIMDVIEVVPEPGQPLTKNKFKVLYEKEQKGPVTALCHCNGHLVSAIGQKIFLWSLRASELTGMAFIDTQLYIHQMISVKNFILAADVMKSISLLRYQEESKTLSLVSRDAKPLEVYSVDFMVDNAQLGFLVSDRDRNLMVYMYLPEAKESFGGMRLLRRADFHVGAHVNTFWRTPCRGATEGLSKKSVVWENKHITWFATLDGGIGLLLPMQEKTYRRLLMLQNALTTMLPHHAGLNPRAFRMLHVDRRTLQNAVRNVLDGELLNRYLYLSTMERSELAKKIGTTPDIILDDLLETDRVTAHF
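Further: lysates from HEK293T cells pretreated with a KDM4 inhibitor to raise proteome methylation, affinity-purified after ±UV, gel-resolved, trypsin-digested, with exclusive unique peptides per protein averaged per condition.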

The molecules below were run on KDM4A-I71AzF (assay: CASI: photo-crosslinking with HEK293T cell extracts, StrepTactin enrichment and LC-MS/MS proteomics). Details: sheet "Final results but with 0.01".
Type: binding, human
With B1 the “Fold change (+UV/-UV)” value was 0.6. With B2 the “Fold change (+UV/-UV)” value was 1. For B3, the “Fold change (+UV/-UV)” value was 2. For B4, the “Fold change (+UV/-UV)” value was 0.6667. With B5 the “Fold change (+UV/-UV)” value was 0. For B6, the “Fold change (+UV/-UV)” value was 0.6923.
